# Patent US20180244758A1 (MAPP BIOPHARMACEUTICAL, published 2018)
# Residue numbers refer to the chain shown, from its start.
# T1: TAFV GP on VSV pseudotype particles (Tai Forest virus (TAFV), UniProt Q66810 33-676)
# T1 sequence: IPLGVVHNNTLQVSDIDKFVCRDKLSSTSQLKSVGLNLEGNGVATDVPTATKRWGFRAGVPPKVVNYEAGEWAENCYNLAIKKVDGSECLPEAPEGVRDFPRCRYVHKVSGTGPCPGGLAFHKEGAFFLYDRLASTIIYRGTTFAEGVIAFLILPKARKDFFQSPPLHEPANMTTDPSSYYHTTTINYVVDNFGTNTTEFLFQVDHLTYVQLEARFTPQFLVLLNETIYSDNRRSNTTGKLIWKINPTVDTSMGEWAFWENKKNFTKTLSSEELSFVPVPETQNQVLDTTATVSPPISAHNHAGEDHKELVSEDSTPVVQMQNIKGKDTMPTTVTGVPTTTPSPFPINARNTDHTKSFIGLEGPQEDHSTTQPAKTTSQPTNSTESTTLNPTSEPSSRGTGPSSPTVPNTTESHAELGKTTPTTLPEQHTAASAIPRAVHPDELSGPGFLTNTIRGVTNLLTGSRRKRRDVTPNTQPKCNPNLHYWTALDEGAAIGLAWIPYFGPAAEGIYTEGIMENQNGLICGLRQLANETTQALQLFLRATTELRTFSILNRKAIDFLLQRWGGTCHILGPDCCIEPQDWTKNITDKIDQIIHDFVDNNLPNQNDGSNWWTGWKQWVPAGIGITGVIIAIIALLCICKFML
# T2: EBOV GP on rVSV particles (Ebola virus (EBOV), UniProt Q05320 33-676)
# T2 sequence: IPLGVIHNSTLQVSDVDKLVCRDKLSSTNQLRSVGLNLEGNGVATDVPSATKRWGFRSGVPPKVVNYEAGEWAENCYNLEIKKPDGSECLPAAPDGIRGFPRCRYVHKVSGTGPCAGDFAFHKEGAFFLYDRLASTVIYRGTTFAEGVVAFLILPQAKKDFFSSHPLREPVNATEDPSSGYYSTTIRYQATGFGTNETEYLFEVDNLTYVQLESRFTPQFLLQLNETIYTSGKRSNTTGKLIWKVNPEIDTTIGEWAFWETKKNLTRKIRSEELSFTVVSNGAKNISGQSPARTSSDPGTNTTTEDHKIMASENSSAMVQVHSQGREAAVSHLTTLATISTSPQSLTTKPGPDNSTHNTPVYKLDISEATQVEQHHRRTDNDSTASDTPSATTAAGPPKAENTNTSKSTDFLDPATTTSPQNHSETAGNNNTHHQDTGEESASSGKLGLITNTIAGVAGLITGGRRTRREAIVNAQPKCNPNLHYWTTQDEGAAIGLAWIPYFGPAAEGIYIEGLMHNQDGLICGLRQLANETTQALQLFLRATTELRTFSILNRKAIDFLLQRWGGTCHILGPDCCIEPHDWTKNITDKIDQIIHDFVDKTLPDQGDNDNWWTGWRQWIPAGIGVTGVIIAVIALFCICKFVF
# T3: SUDV GP on rVSV particles (Sudan virus (SUDV), UniProt Q66814 33-676)
# T3 sequence: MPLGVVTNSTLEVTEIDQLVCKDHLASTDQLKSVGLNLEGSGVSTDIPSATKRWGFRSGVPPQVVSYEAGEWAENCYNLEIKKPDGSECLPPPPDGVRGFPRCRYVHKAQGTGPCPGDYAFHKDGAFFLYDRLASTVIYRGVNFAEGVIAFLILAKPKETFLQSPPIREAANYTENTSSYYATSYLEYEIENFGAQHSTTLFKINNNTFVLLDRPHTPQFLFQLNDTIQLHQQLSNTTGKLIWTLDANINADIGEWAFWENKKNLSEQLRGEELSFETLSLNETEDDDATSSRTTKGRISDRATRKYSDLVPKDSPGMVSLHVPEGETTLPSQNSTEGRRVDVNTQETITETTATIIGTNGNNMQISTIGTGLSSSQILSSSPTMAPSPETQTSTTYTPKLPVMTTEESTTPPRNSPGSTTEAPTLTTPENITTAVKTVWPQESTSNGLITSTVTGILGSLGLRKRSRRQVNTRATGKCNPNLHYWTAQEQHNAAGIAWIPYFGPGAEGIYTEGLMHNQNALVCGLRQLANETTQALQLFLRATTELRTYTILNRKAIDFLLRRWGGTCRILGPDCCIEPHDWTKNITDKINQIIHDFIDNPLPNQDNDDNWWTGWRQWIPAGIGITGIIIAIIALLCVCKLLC
# T4: GP of authentic (wild-type) SUDV (Sudan virus (SUDV), UniProt Q66814 33-676)
# T4 sequence: T3 sequence
# T5: GP of authentic (wild-type) EBOV (Ebola virus (EBOV), UniProt P87666 33-676)
# T5 sequence: T2 sequence with V278A, G282R, S345P, L346P, S390P, P398L, S408G, F411L, T467A, I512T
# B1: mAb PE-05 (antibody, V domains shown)
# VH: QVQLQESGGGLVKPGRSLRLSCTASGFTFGDYAMSWFRQAPGKGLEWVGFLRSKAYGGTAEYAASVKGRFTMSRDDSKSIAYLQMNSLKTEDTAVYFCTRDGFRGSSWGYSYYGMDVWGQGTTVTVSS
# VL: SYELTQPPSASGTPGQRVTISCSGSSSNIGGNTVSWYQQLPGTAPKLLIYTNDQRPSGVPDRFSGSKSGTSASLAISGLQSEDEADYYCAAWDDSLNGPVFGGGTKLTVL
# B2: mAb PE-87 (antibody, V domains shown)
# VH: QVQLVQSGVTLVQPGGSLRVSCAASGFTFSSYAMSWVRQAPGKGLEWVSAISGLGGSTYYADSVKGRFTISRDNSKNTLYLQMNSLRAEDTAVYYCAKDHRVWAAGYHFDYWGQGALVTVSS
# VL: DIVLTQSPSTLSASVGDRVTITCRASQSISSWLAWYQQKPGEAPKLLISDASSLESGVPSRFSGSGSGTEFTLTISSLQPDDFATYYCQQYYSSPTFGGGTKVEIK
# B3: mAb PE-16 (antibody, V domains shown)
# VH: QVQLVQSGAEVTKPGASVKVSCKASGYTFTTYYMHWVRQAPGQGLEWVGIINPSGGITRYAQKFQGRVTLTRDTSTTTVYMELSSLRSEDTAVYYCARDRYPVLFATDYGMDVWGQGTTVTVSS
# VL: DIVMTQSPATLSLSPGERATLSCRASQSVSGYLAWYQQKPGQAPRLLIYDASNRATGIPARFSGSGSGTDFTLTISSLEPEDFAVYYCQQRSIWPPGVTFGGGTKVEIK
# B4: mAb PE-24 (antibody, V domains shown)
# VH: EVQLVESGGGLVQPGGSLRLSCAASGFTFSSYAMSWVRQAPGKGLEWVSEISGLGGSTYYADSAKGRFTISRDNSKSTLYLQMNSLRAEDTAVYYCAKDHRVWAPGYYFDHWGQGTLVTVSS
# VL: B2 VL with E42K, S49Y, Y87F, Y92N, S93R
# Biological target: T1, TAFV GP on VSV pseudotype particles
# Experiment: cell-based or functional assay
row,Binder,rVSV-GP neutralization IC50 [nM]
1,B1,0.8
2,B2,1
3,B3,4.8
4,B4,1.5

# Biological target: BDBV GP on rVSV particles (Bundibugyo virus (BDBV))
# Experiment: cell-based or functional assay
row,Binder,rVSV-GP neutralization IC50 [nM]
1,B1,4
2,B2,0.5
3,B3,0.6
4,B4,1

# Biological target: T2, EBOV GP on rVSV particles
# Experiment: cell-based or functional assay
row,Binder,rVSV-GP neutralization IC50 [nM]
1,B1,9
2,B2,0.5
3,B3,0.2
4,B4,2

# Biological target: T3, SUDV GP on rVSV particles
# Experiment: cell-based or functional assay
row,Binder,rVSV-GP neutralization IC50 [nM]
1,B1,34
2,B2,0.3
3,B4,0.5

# Biological target: T4, GP of authentic (wild-type) SUDV
# Experiment: cell-based or functional assay
row,Binder,Authentic virus neutralization IC50 [nM]
1,B2,0.2
2,B3,300
3,B4,0.2

# Biological target: GP of authentic (wild-type) BDBV (Bundibugyo virus (BDBV))
# Experiment: cell-based or functional assay
row,Binder,Authentic virus neutralization IC50 [nM]
1,B2,0.6
2,B3,0.3
3,B4,0.6

# Biological target: T5, GP of authentic (wild-type) EBOV
# Experiment: cell-based or functional assay
row,Binder,Authentic virus neutralization IC50 [nM]
1,B1,5.2
2,B2,0.2
3,B3,0.1
4,B4,0.7
